This is an account of results in patent US20240218057A1 (ROCKEFELLER UNIVERSITY, published 2024).

Positions count from the first letter of the chain named.

First the molecules themselves.
B1: C955 (antibody, V domains shown)
VH: QVQLQQWGAGLLKPSETLSLTCAVYGGTFSGYSWTWIRQPPGKGLDWIGEINHSGSTNYNPSLKSRVTISVDTSKNQFSLKLSSVTAADTAVYYCARAGFGFVITSRSGTDPLFDYWGQGTLVTVSS
VL: QSVLTQPPSVSGAPGQRVTISCTGSSSNIGAGYDVHWYQQLPGTAPKVLIYGNNNRPSGVPDRFSGSKSGTSASLAITGLQAEDEADYYCQSYDTSLSGSRVFGGGTKLTVL
notes: IgG; V domains only
B2: C902 (antibody, V domains shown)
VH: EVQLVQSGAEVKKPGESLRISCKGSGYSFHTYWIHWVRQMPGKGLEWMGKIDPSDSYTNYSPSFQGHVTFSADRSISTAYLQWSSLKASDTATYYCARLSWSPPTRTTDEKNWFDPWGQGTLVTVSS
VL: DIQLTQSPSFLAASAGDRVTITCRASQGISSYLAWYQQKPGKAPKVLIYAASTLQSGVPSRFSGSGSGTEFTLTISSLQPEDCATYYCQQFNSDPLTFGGGTKVEIK
notes: IgG; V domains only
B3: C900 (antibody, V domains shown)
VH: QVQLQESGPGLVKPSGTLSLTCTVSGGSINSRNWWSWVRQPPGKGLEWIGEIFHSGSTNYNPSLESRVAISIDKSHNHFSLKLTSVTAADTAVYYCARANGILDFWGQGTLVTVSS
VL: DIQMTQSPSSLSASVGDRVTITCRASQGISNSLAWYQLKPGKAPKLLLYAASTLESGVPSRFSGSGSGTNFTLTISSLQPEDFASYCCQHYYSSPRTFGQGTKVEI
notes: IgG; V domains only
B4: C962 (antibody, V domains shown)
VH: EVQLVESGGGLVQPGGSLRLSCTASRLTVSSNYMNWVRQAPGKGLEWVSVIYAGGSTFYADSVKDRFTISRDNSMNTLYLQMNSLRVEDTAVYYCARLGGYRYGMDVWGQGTTVTV
VL: DIQMTQSPSSLSASVGDRVTITCQASQDISNYLNWYQQSPGKAPKLLIYDASKLETGVPSRFSGSGSGTDFTFTISSLQPEDIATYYCLQYDNLPYSFGQGTKLEI
notes: IgG; V domains only
B5: C959 (antibody, V domains shown)
VH: QVQLQESGPGLVKPSETLSLNCNVSGGSISNYYWSWIRQPPGKGLEWIGFISYSGSTDYNPSLKSRVIISIDTSKKHFSLNLSSVTAADTAVYFCARHYDILTALSWFDPWGQGTLVTVSS
VL: QSVLTQPPSVSAAPGQTVTISCSGSSSNIRNNFVSWYQQFPGTAPKLLIYDNNKRPSGIPDRFSGSKSGTSATLGITGLQTGDEADYYCGTWDSSPSACWVFGAGTKLTV
notes: IgG; V domains only
B6: C967 (antibody, V domains shown)
VH: QVQLVESGGGVVQPGRSLRLSCAASGFTFRIYAMHWVRQAPGKGLEWVAIIWNDGSKQYYADSMKGRFTISRDNSKNTLYLQMNSLRDEDTALYYCAREGVALAGNGVDGFDIWGQGTMVTVSS
VL: DIQMTQSPSSLSASVGDRVTITCRASQTISTFLNWYRQIPGKAPKLLIYAASSLQSGVPSRFSGSGSGTDFTLTISSLQPEDFATYYCQQTYSTPYTFGRGTKLEIK
notes: IgG; V domains only
B7: C989 (antibody, V domains shown)
VH: QVQLVQSGPEVKKPGSSVKVSCKASGGNFNSYTITWVRQAPGHGLEWMGRIIPTLGVANYALNFQDRITITADKSTSTAYMDLSSLRSEDTAVYYCARETGYSGFLAVAYMDVWGNGTTVTVSS
VL: QSVLTQPPSVSGAPGQRVTISCTGSSSNVGAGYDVHWYQQLPGTAPKLLIYRNNNRPSGVPDRFSGSKSGSSASLDITGLQAEDEADYYCQSYDSSLSDSVFGGGTKLTV
notes: IgG; V domains only
B8: C896 (antibody, V domains shown)
VH: QVQLVESGGGVVQPGRSLKLSCAASGFTFKTYGMHWVRQAPGKGLEWVAVISYDGTNDYYADSVKGRFTVSRDNSKNTLYLQMNSPRTEDTAVYYCAKAGGPYYYDTSGSFWYFDYWGQGTLVTVSS
VL: DIQMTQSPSSLSASVGDRVTITCRASQTISSYLNWYQQKSGKAPELLVYDASNLESGVPSRFSGSGSGTDFTLTISSLQPEDFATYYCQQSYSFGPGTKVDIK
notes: IgG; V domains only
B9: C901 (antibody, V domains shown)
VH: QVQLVESGGGVVQPGRSLRIACGASGFTFSTYDMHWVRQAPVKGLEWVAVISRDGSGKFYADSVKGRFTISRDNSKKTLYLQMDSLRPEDTAMYYCARDFESRTWDPPKYYYALDVWGQGTTVTVSS
VL: DIQMTQSPSSLSASVGDRVTITCRASQSISTYLNWYQQKPGKAPSLLIYAASSLYSGVPSRFSGSGSGTDFSLTISSLQPEDFATYYCQQTYTTPTWTFGQGTKVEIK
notes: IgG; V domains only
B10: C987 (antibody, V domains shown)
VH: QVQLQESGPGLVKPSETLSLTCNVSGDIINKYYWSWIRQSPGKGLEWIGYIYYSGTTYYNPSLKSRVTMSVGTSKQQFSLRLTSVTAADTAVYYCARMLSTEWSFNWFDPWGPGTLVTVSS
VL: SYELTQPPSVSVSPGQAASITCSGDKLGDKFACWYQQKPGQSPVLVIYQNDKRPTGIPERFSGSNSGNTATLTISGTQAMDEADYFCQAWDSTSASVFGTGTKVTVL
notes: IgG; V domains only
B11: C897 (antibody, V domains shown)
VH: QVQLVESGGGVVQPGRSLRLSCAASGFIFSHYGMHWVRQAPGKGLEWVAVILYDGSDQYYADSVKGRFTISRDNSKNTLFLEMNSLRLEDTAVYYCAKGGGQYCSHGNCYLNYFDYWGQGALVTVSS
VL: DIQMTQSPSSLSASVGDRVTITCQASQDIRDNLNWYQQKPGKAPQLLIYDASNLQPGVPSRFSGSGSGTHFTFTISRLQPEDIATYFCQQYANLPTTFGPGTKVDIK
notes: IgG; V domains only
B12: C968 (antibody, V domains shown)
VH: QVQLVESGGGVVQPGRSLRLSCAASGFTFRIYAMHWVRQAPGKGLEWVAIIWNDGNKKDYVDSVKGRFTISRDNSRNTVYLQMNSLRVDEDTAVYYCAREGVAVGGNGVDGFDMWGQGTMVTVSS
VL: DIQMTQSPSSLSSSVGDRVTITCRASQSIGIYLNWYQQKPGKVPNLLIYAASTLQTGAPSRFSGSGSGTDFILSISSLQPEDFATYYCQQTYSVPYTFGQGTKLEIK
notes: IgG; V domains only
B13: C898 (antibody, V domains shown)
VH: QVQLVQSGAEVKKPGSSVKVSCKASGGPFSSYAFTWVRQAPGQGLEWMGGIIATFGTVNYAQKFQGRVTITADEFTSTVNMELSSLRSDDTAVYYCARRDCSTTSCYDEVLYRLVDWGQGTLVTVSS
VL: EIVLTQSPGTLSLSPGERATLSCRASQSVNSDYLAWYKQKPGQAPRLLIYGTSSRATGIPDRFSGSGSGTDFTLTISRLEPDDFAVYYCQQYGNSPRTFGQGTKVEIK
notes: IgG; V domains only
B14: C986 (antibody, V domains shown)
VH: EVQLVQSGAEVKKPGETLKISCKGSGDSFSNYWIGWVRQSPGKGLEWMAIVYPGDSDARYSPSFQGQVTISADKSVTTAYLKWSSLKASDTAIYYCVRGLPVDWYFDLWGRGTLVTVSS
VL: QSVLTQPPSVSGAPEQRVTISCTGSSSNIGAGHDVHWYQQLPGTAPKLLIYNNNNRPSGVPDRFSGSKSGASASLAISGLQAEDEAEYYCQSYDKSLSVLYVLGTGTKVTV
notes: IgG; V domains only
B15: C899 (antibody, V domains shown)
VH: EVQLVESGGGLVKPGGSLRLSCAASGFTFSNAWMSWVRQAPGKGLEWVGRIKSKTDAETTDYAAPVRGRFTISRDNSKNTLYLEMNSLKTEDTAVYYCTTDADYSDSSGYYVTYYFEYWGQGSLVTVSS
VL: QSALTQPRSVSGSPGQSVTISCTGSNSDVGGYNYVSWYQQHPGKAPKLVIYDVSLRPSGVPDRFSGSKSGITASLTISGLQPEDEAHYYCCSFAGTYTPWVFGGGTRLTVL
notes: IgG; V domains only
B16: C954 (antibody, V domains shown)
VH: QVQLVQSGAEVKKPGSSVKVSCKASGDTFTNYAFSWMRQAPGQGLEWMGRIIPILGIVKYSQKFQDRVRISADKSTSTAYMDLSSLRSEDTAMYYCARDSEFSTSWFSRGYHGMDVWGQGTTVTVSS
VL: DIVMTQSPLSLPVTPGEPASISCRSSQSLLHGDGYNYLDWYLQKPGQSPHLLIYLGSNRTSGVSDRFSGSGSGTDFTLKISRVEAEDVGVYYCMQALQTPPTFGGGTKVEIK
notes: IgG; V domains only
B17: C956 (antibody, V domains shown)
VH: EVQLVESGGGLVQPGRSLRLSCTGSEFTFGDFSMSWFRQAPGKGLEWVGFIRRKADGGTTEYAASVRGRFTISRDDSKSIAYLVMNSLKSEDTAVYYCTRAWIPTPHDYWGQGVLVTVSS
VL: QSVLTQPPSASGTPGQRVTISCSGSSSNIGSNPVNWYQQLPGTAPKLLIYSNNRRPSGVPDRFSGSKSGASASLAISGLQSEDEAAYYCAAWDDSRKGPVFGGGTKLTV
notes: IgG; V domains only
B18: C957 (antibody, V domains shown)
VH: B17 VH with G24A, E26G, G30A, S35T, K54E, S79G, V84L, V95M, T99S, V114T
VL: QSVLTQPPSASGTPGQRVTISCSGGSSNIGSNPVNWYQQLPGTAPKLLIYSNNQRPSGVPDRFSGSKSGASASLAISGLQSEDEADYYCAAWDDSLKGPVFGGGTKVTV
notes: IgG; V domains only
B19: C975 (antibody, V domains shown)
VH: EVQLVESGGDLTQPGGSLRLSCAASGFTFSSYDMHWVRQATGKGLEWVSGIGTSGDTYYADSVKGRFTISRENAKNSLFLQMNNLRAGDTATYYCARTEYAWGSYRSYWYFDLWGRGTLVTVSS
VL: DIQMTQSPSSLSASVGDRVTITCRTSQTISTYLNWYQQKPGKAPKVLIYAASSLQSGVPSRFSGSGSGTDFTLTISSLQPEDFATYFCQQSYSAPPWTFGPGTKVEIK
notes: IgG; V domains only
B20: C960 (antibody, V domains shown)
VH: QVQLVESGGGVVQPGRSLTLSCTASGFTFNRFAMFWVRQAPGKGLEWVAVISFDGSYEHYAESVKGRFAIFRDNPKNTLYLQMNSLRAEDTAVYYCAKSPINYCANGVCYPDSWGQGTLVTVSS
VL: NFMLTQPHSVSESPGKTVTISCTGSSGSIANNYVQWYQQRPGSAPTTVIFEDTQRPSGVPDRFSGSIDSSSNSASLNISGLKPEDEADYYCQSFDVNSRWVFGGGTKLTVL
notes: IgG; V domains only
B21: C969 (antibody, V domains shown)
VH: QVQLQESGPGLVKPSETLSLTCTVSGGSISSYYWSWIRQPPGKGLEWIGYIYYSGSTNYNPSLKSRVTISVDTSKNQFSLKLSSVTAADTAVYYCARLLSTEWLFNWFDPWGQGTLVTVSS
VL: not shown
notes: IgG; V domains only
B22: C952 (antibody, V domains shown)
VH: EVQLVQSGAEVKKPGESLTISCKDSGNSFTIYWIGWVRQMPGKGLEWMGMIYPGDSGTRYSPSFEGQVTISADESINTAYLQWRSLKASDTAMYYCVRGIAVDWYFDLWGRGTLVTVSS
VL: QSVLTQPPSVSGAPGQRVTISCTGSSSNIGAGFDVHWYQQLPGTAPKLLIYGNNNRPSGVPDRFSGSKSATSASLAITGLQAEDEADYYCQSSDSSLSGLYVFGTGTNVIV
notes: IgG; V domains only
B23: C953 (antibody, V domains shown)
VH: QVQLVQSGAEVKKPGSSVKVSCKASGGTFSSYAISWVRQAPGQGLEWMGRIIPILGIANYAQKFQGRVTITADKSTSTAYMELSSLRSEDTAVYYCARDSEYSSSWYSRGYYGMDVWGQGTTVTVSS
VL: not shown
notes: IgG; V domains only

For this test, the target named is T1, SARS-COV-2 RBD (SARS-COV-2, UniProt P0DTC2 319-539).
T1 construct: also called WT RBD
In words: ELISA, RBD coated.
With B1, the EC50 was 2.44 ng/mL.

The molecule B2 yielded an EC50 of 3.39 ng/mL.

B3 showed an EC50 of 2.54 ng/mL. The EC50 values of the last two molecules are within 1.5-fold of each other.

For B4, it took 1.74 ng/mL to reach a half-maximal effect (EC50).

With B5, the EC50 came to 4.58 ng/mL.

Turning to B6, the EC50 was found to be 3.58 ng/mL.

In the case of B7, the response was half-maximal at 4.12 ng/mL (EC50). The EC50 values of the last two molecules are within 1.5-fold of each other.

In turn, B8 yielded an EC50 of 4.3 ng/mL. The EC50 values of the last two molecules are within 1.5-fold of each other.

In turn, B9 returned an EC50 of 2.01 ng/mL.

For B10, the EC50 is 3.11 ng/mL.

Consider B11, for which the EC50 came out at 1.88 ng/mL. Compared with the last molecule, the EC50 is about 1.7-fold lower.

B12 showed an EC50 of 3.19 ng/mL. Against the preceding molecule, the EC50 is about 1.7-fold higher.

For the molecule B13, the concentration giving a half-maximal response (EC50) was determined as 7.6 ng/mL.

Molecule B14 yielded an EC50 of 3.36 ng/mL.

In turn, B15 returned an EC50 of 2.23 ng/mL.

Molecule B16 returned an EC50 of 1.48 ng/mL.

For the molecule B17, the EC50 is 1.58 ng/mL.

For the molecule B18, the EC50 turned out to be 1.93 ng/mL. This EC50 and that of the molecule before are within 1.5-fold of each other.

Regarding B19, the midpoint of the response, the EC50, lay at 2.88 ng/mL.

Molecule B20 registered a concentration giving a half-maximal response (EC50) of 1.62 ng/mL. This EC50 lies about 1.8-fold lower than the previous one.

B21: the midpoint of the response, the EC50, lay at 3.49 ng/mL.

Take B22: the half-maximal effective concentration (EC50) came out at 2.4 ng/mL.

Turning to B23, the EC50 turned out to be 4.09 ng/mL.
